Reference: publication PMC4049591

What was measured:
[1] = HA immunoblot of auto-cleavage; settings: glycan lost; control: wild-type SHH-HA
[2] = cycloheximide chase of SHH-C, HA immunoblot; settings: glycan changed form; control: untreated cells

Row | Substance | other: proteolytic processing [1] | degradation_or_half_life [2]
1 | sonic hedgehog (SHH): N278A | abolishes | –
2 | sonic hedgehog (SHH): castanospermine (CST) | – | decreases
3 | sonic hedgehog (SHH): kifunensine (KIF) | – | decreases
